In the RNAGym collection of RNA variant scans (doi:10.1073/pnas.2313332121):
Variants at the floor of the assay were thinned out.

B1: TPR 5TU (parent)
chain: GGAUCUUCUCGAUCUAACAAAAAAGACAAAUCUGCCACAAAGCUUGAGAGCAUCUUCGGAUGCAGAGGCGGCAGCCUUCGGUGGCGCGAUAGCGCCAACGUUCUCAACUAUGACACGCAAAACGCGUGCUCCGUUGAAUGGAGUUUAUCAUG

Variants of: B1
Assay: polymerase ribozyme fitness, log enrichment relative to wild type (log ratio); higher = more active; in vitro selection for triplet polymerase activity
Summary of the method: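 In triplicate, a single round of in vitro selection was run on each mutant library, PCR-built and transcribed, covering one subunit of a heterodimeric triplet polymerase ribozyme. Frozen incubation at −7 °C followed annealing with a biotinylated primer, partner subunit and triplets, and extended constructs were then gel-excised, streptavidin-captured and taken through RT-PCR. Fitness is the logarithm of genotype enrichment over wild-type enrichment, from inverse-variance-weighted replicate averages of Illumina-sequenced inputs and outputs. […] only genotypes with ≥10 input reads and ≥1 read per output were kept.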

Variant | polymerase ribozyme fitness (log ratio)
A60U G141U | 0.392
A26U C85A | -2.68
U53A G80C | ≤ -4.2
U55G U61G C76U C87A U101G U134G G136U | ≤ -4.2
G34C C51A G58A G59C C96A A107U | ≤ -4.2
U6A G86U | -1.41
C10G A89G | ≤ -4.2
C76U C85U U101C U145G | -0.2
A52C C93U G94C | -3.36
A47U C51U C87U A113U G152A | -3.99
C36U U55G C118G | -1.72
C27U G42A G67U C69A G117A A150C | ≤ -4.2
C87A U101C | -4
A49C U109G | ≤ -4.2
A37G A60G C87U | -1.88
A29U C76A C87A C93A C129A | ≤ -4.2
A26U A30U G48A | ≤ -4.2
A20U A22U A52C G67A U127A | ≤ -4.2
G58A G84A U104G G126U | -0.778
G62A G81U C95A G126U | 0.493
G83U G133C | -2.09
A52G C69U G143A | -2.71
C32G C36U C69U | ≤ -4.2
A22U G50C U53G G88C C93U C96U C108U | ≤ -4.2

Variant | polymerase ribozyme fitness (log ratio)
G58C A60C G94A G100C C103A | ≤ -4.2
C85U C96U G126C A147G | ≤ -4.2
G46C G50C G59U C118U G126C | ≤ -4.2
C54U G83A | -0.655
A24U U56A G62C | -1.06
A40C U55G G59C C75A U82G C96G U111G U148A A150C | ≤ -4.2
U6G C8G | -3.65
A29U A64C C85G | ≤ -4.2
A73U G84A | -2.32
U6A U55G U139A | ≤ -4.2
G11A G34C U56A C57U C99G A142C | ≤ -4.2
C72U G124A U146G | -1.3
U6G C18G A66C G68C G88C G152C | ≤ -4.2
G58C U82A G143C | -1.86
C79A C87G A113G | ≤ -4.2
A3C G34C G48C A106U A138G A150G | ≤ -4.2
C14U C95U U101G C105U C125U A142U | ≤ -4.2
C85U A120G G124U G143C | -3.46
A24U A52C | -0.457
U31G A89G C95U | -1.41
A41G U55G G59A U145A | -0.554
A24U A113C | -3.05
U77A G94C A98U | ≤ -4.2
C10G A21U A91G | ≤ -4.2

Variant | polymerase ribozyme fitness (log ratio)
C54U G59A G70C | -2.48
C14G G25C | ≤ -4.2
A40G C54U C96U G141U | -2.2
C5G U15A U45G U82C G92A A150U | ≤ -4.2
G50U U55A G126U | -0.316
G48A A52G C116U | -0.319
A52C G152U | -3.45
U13C A20C A21C G58A U82A U101A | -1.36
C35U G133U | -3.79
C5A G58A G86U | -1.52
C35A U134C | -3.61
A47G C51G C76U C87U U104G A107U U151C | ≤ -4.2
C18U A20G C76A U77A G92U U101A U134G | ≤ -4.2
C14A U53A G94C | -3.67
U77C C95U G141A | ≤ -4.2
A12U C27G C36U C131U | ≤ -4.2
C10A A12G A60G C93A | ≤ -4.2
C8U A52U U56A U61A C75U C93U C99G C132G | ≤ -4.2
G59A G94A | -0.522
C27G U56G | ≤ -4.2
U7G C96U C129U A137G | ≤ -4.2
G59U A60G C93U | -3.87
C18G A52G C87U | -1.15
C14U G46A A47C C57A G65C G86U C96U | ≤ -4.2

Variant | polymerase ribozyme fitness (log ratio)
A16G A98U | -1.65
A19G C87A C116A G143C U145G G152U | ≤ -4.2
G62C A137C U148G | ≤ -4.2
G11C U15G A40C C87A U148G | ≤ -4.2
A110G U134G | -4.07
G48A G62A G68C U78G C87A A91U A98U | ≤ -4.2
A30U G70A | ≤ -4.2
U6G G80A U82G G141U | 0.34
C8G U13G A40C U77A G94A A97C C99U A113G G117U U139G U144G | ≤ -4.2
U44G G81C C96U C108G | ≤ -4.2
G68U C129U | ≤ -4.2
C38U C85U U146G | -0.571
A30G A47G U56A G71C G117U A150U | ≤ -4.2
A40U A41U G46A C57A C87A G92U | 0.0643
C54U C72U A91U C95G A98C C103A A119G A121G | ≤ -4.2
U13G A19C A29G G50C U127C | ≤ -4.2
A17C A52C C79A G81A G84U A110G G112C | ≤ -4.2
A23U G68A A73U C99U | ≤ -4.2
A30C C57U G81C C87G A97U U109G G141A | ≤ -4.2
A16U A20U U146A | -3.95
A30U A49C G58A A119C G128U U134G | ≤ -4.2
C79A C87G | ≤ -4.2
A19U C57A A60C C93A | ≤ -4.2
A17U C116U | -0.46

Variant | polymerase ribozyme fitness (log ratio)
U90A C99U U111C | -4.13
U44A C54U U82G C87A C123U | ≤ -4.2
C51A C54G G59C G84A C116G | -3.63
A19U G71U G83C U146G | ≤ -4.2
A49C U53G U56C A119C | ≤ -4.2
U13G C14G A20U A37G A47C A49U C99U C149U | ≤ -4.2
A52C G58C G88U | ≤ -4.2
A3U A39G A52G U144C | -3.97
U56A C105U C116G | -0.192
C35A C54G G83A C125A | ≤ -4.2
A3G G94A | -1.67
A39U A113C | -4.11
G11A C85U | -1.56
C14G U15A C18U G25U C27G G62A C85G A138C | ≤ -4.2
C75U C85U A106C A122C U135A U145A | -3.69
C54G C75U | -1.86
C32G G42U U55A U61A C85A C95A A107U | ≤ -4.2
A47G C93A C131U U134C | -0.603
U135G A137U U139A U151G | ≤ -4.2
A39G A40G A41U G58A G59U U61A C79A U144A G152C | ≤ -4.2
U53G U61A | -3.21
C87U C116A G117C C118G | -1.82
A23C C57U G74C G92U U102A A115C G143C U151A | ≤ -4.2
A29C U55A C75A C85U G141C | ≤ -4.2

Variant | polymerase ribozyme fitness (log ratio)
A17G G71A | -3.06
A20G G48A A119C A121U G136U | -3.51
C87U G136C | -3.65
A16C A19U C85U G117U A150U | 0.0374
A19U U56A A60G C75U C93A C118U U146A | -3.86
G65C G81U G94C C105G A115G C129U A138C | ≤ -4.2
A20C A28C A37U G42U G71A C85U C99G A106G C131G | ≤ -4.2
C36U A66C C69A U78G | ≤ -4.2
C96U C99A G133C G141A | ≤ -4.2
G48C A64G G70U G94U U144G C149A | ≤ -4.2
C27U U55A C99G A138G | ≤ -4.2
C8A C27U G70A C96U | ≤ -4.2
U55A G59C C103U U104G | -3.29
A28U C54A G92U C118U G124U C131A A137U | ≤ -4.2
C54U C63U G94U G143A | -2.26
U56G G83U C125U | -1.82
C10G C18G A21C G25A G65A C79A U104G | ≤ -4.2
A41G C96A C149U | -0.509
A52C C57G | -1.79
G94A A97U C125G | -2.14
C18U A40G C57G C95U | -3.91
U4G A52C G83A | -2.69
A60C C76U G80C G117U C123A | ≤ -4.2
C14A A73G G86A A98U | -3.58

Variant | polymerase ribozyme fitness (log ratio)
C10G A26C C76A G83A | ≤ -4.2
A47C C75G U77A G88A A106U | ≤ -4.2
A22C C32U C85G C95A G100A G112C | ≤ -4.2
A49C A66U | ≤ -4.2
C85A U102G A121G A122C | ≤ -4.2
C38U C54A C57G G143A | -4.08
C18U G84A A113G C114U | -2.6
A3G C18A A19G U33G C125U | ≤ -4.2
A91U A106C C125A | ≤ -4.2
C96A C116U | -0.662
U33C G71C | ≤ -4.2
A52U C129U | -2.91
A20C C85U | -1.04
U55A A137G G141A | -1.96
A24U A60U G84U | -2.22
G58C C96U A150G | -0.919
A23G C35U U56A C85A C118U G124U | -4.08
G11U A30U G65U G70C C85G A91U C93A A150U | ≤ -4.2
A40C C76U | 0.0931
U6G C10G | -3.01
A16U A21G C32U G50C U151G | ≤ -4.2
A19U A26C C38U A89G A98U A107C | ≤ -4.2
U53A C57G C95G | -4.01
